The target of experiment [1] is acrylodan-labeled A-C2 (Q26C mutant). In words: other fluorescence titration; fixed acrylodan-labeled DARPin (100 nM D1 or 15 nM high affinity DARPins) titrated with tubulin; 20 mM K-phosphate pH 7.2, 100 mM KCl, 1 mM MgCl2, 0.5 mM EGTA, 10 μM GDP, 20 °C; 1:1 quadratic fit.
Experiment [2] deals with acrylodan-labeled D1 (Q26C mutant). Described as above.
The target of experiment [3] is acrylodan-labeled TM-3 variant (Q26C mutant). Described as above.
Experiment [4] deals with subtilisin-digested acrylodan-labeled TM-3 (C-cap-truncated TM-3). Described as above.
For another experiment, the target named is DARPin D1. Put plainly: SPR; Proteon XPR36; DARPins immobilised through their N-terminal His-tag on Ni2+-activated tris-NTA (HTG) sensor chip, tubulin injected at five concentrations; 20 °C; buffer of the fluorescence experiments with 20 μM EGTA and 0.005% Tween 20; Langmuir fit; for D1 also KD from the plateau values. (In general: Surface plasmon resonance follows binding to a sensor surface in real time, without labels.)
Sequence of DARPin D1 (main, as listed by the source): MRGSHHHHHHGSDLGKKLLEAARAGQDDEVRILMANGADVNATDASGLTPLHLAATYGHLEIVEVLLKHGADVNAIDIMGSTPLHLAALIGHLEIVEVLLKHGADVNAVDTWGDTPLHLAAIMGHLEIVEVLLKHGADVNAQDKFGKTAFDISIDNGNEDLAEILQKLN

The target of the next experiment is TM-3 1-149. Described as above.
Sequence of TM-3 1-149 (main, as listed by the source): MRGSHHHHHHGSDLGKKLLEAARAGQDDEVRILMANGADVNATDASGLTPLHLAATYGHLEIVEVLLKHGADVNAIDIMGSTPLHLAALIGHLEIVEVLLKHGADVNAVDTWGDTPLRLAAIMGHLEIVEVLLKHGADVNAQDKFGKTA
For experiment [5], the target named is acrylodan-labeled A-C2 (Q26C mutant). In words: fluorescence kinetics (stopped-flow and spectrofluorometer); koff: chase of acrylodan-labeled DARPin from tubulin by excess unlabeled DARPin (stopped-flow for D1, spectrofluorometer for high affinity DARPins), mono-exponential fit; kon: at least 5-fold excess of tubulin added to 50 nM labeled DARPin in a stopped-flow system, pseudo-first-order, slope of kobs against tubulin concentration.

Experiment [6] has as its target acrylodan-labeled D1 (Q26C mutant). The experiment is described as above.
In experiment [7] the target is acrylodan-labeled TM-3 variant (Q26C mutant). The experiment is described as above.
Experiment [8] concerns the target subtilisin-digested acrylodan-labeled TM-3 (C-cap-truncated TM-3). The description is as above.

Several values for one entry are separate records, joined by “and”; a condition that tells them apart may be missing. Equal values may be shown once.

For the substance “αβ tubulin heterodimer (tubulin) (complex)”, the Kd (as a rule, the concentration at which binding is half-saturated) was 0.82 nM in experiment [1]; 127 nM in [2]; 0.9 nM in [3]; 1.03 nM in [4]; 300 nM and 275 nM with DARPin D1; 1.6 nM with TM-3 1-149. The Kd in experiment [5] was 0.444 nM; in experiment [6], 115 nM; in [7], 0.269 nM; in [8], 0.172 nM. Also, the koff (in general, the first-order rate constant of dissociation) with DARPin D1 came to 0.22 s⁻¹; with TM-3 1-149, 0.0027 s⁻¹; in [5], 0.0071 s⁻¹; in experiment [6], 1.49 s⁻¹; in [7], 0.0049 s⁻¹; in experiment [8], 0.0046 s⁻¹. In addition, the kon (usually the rate constant with which the complex forms) stood at 800000 M⁻¹ s⁻¹ in the experiment with DARPin D1; 1.7e+06 M⁻¹ s⁻¹ with TM-3 1-149; 1.6e+07 M⁻¹ s⁻¹ in [5]; 1.3e+07 M⁻¹ s⁻¹ in experiment [6]; 1.82e+07 M⁻¹ s⁻¹ in experiment [7]; 2.67e+07 M⁻¹ s⁻¹ in [8].

These data come from publication PMC4933879.
